Test results as given in patent publication US11559589B2, “Compositions and methods for detection and modulation of T cell mediated immune responses against viral vectors utilized for gene therapy” (The Children's Hospital of Philadelphia, priority 2006, dated 2023).
Like-named read-outs stand apart in the source and are kept apart here.

T1: AAV-2 capsid (AAV-p74 peptide) peptide on HLA-B*07:02 (human)
T1 peptide: VPQYGYLTL


Columns and labels:
[1] = biological target: T1, AAV-2 capsid (AAV-p74 peptide) peptide …; experiment: multimer staining
[2] = system: lymph node cells and splenocytes from HLA-B*0702 transgenic mice; experiment: AAV-scTCR multimer staining of cells from HLA-B*0702 transgenic mice after intravenous AAV vector; assay type: cell-based
Text: FIGS. 12A and 12B are a pair of histograms swing AAV-scTCR multimer staining of CD11c+CD19-cells collected from HLA B*0702 mice one week after intravenous infusion of 1E11 vector genomes (vg) of AAV.

[3] = biological target: MHC molecules displaying the AAV peptide epitopes on Malme-3 fibroblasts (UniProt P01889+P03135)
Procedure: AAV-scTCR multimer was tested in vitro using a normal human fibroblast cell line positive for HLA-B*0702 (Malme-3 available from the ATCC repository). Cells were peptide loaded with AAV capsid epitopes at a concentration of 10 ug/ml for 2 hrs at 37° C. and then stained with the AAV-scTCR multimer (FIG. 10); alternatively, cells were transduced with an AAV vector at an MOI of 5×10^5 or 1×10^6 and stained 24 or 48 hours later (FIG. 11).

[4] = biological target: AAV-p74 peptide/HLA-B7 complexes on cell surface of JyA2B7 cells (UniProt P01889+P03135); details: for minimum AAV-p74 peptide loading concentration stained: 0.5 μg multimer
AAV-p74 peptide/HLA-B7 complexes on cell surface of JyA2B7 cells, sequence (P61769 21-119): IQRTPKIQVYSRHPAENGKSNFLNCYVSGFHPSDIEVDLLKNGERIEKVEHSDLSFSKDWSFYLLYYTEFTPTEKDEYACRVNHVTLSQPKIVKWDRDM
AAV-p74 peptide/HLA-B7 complexes on cell surface of JyA2B7 cells, sequence (P01889 25-362): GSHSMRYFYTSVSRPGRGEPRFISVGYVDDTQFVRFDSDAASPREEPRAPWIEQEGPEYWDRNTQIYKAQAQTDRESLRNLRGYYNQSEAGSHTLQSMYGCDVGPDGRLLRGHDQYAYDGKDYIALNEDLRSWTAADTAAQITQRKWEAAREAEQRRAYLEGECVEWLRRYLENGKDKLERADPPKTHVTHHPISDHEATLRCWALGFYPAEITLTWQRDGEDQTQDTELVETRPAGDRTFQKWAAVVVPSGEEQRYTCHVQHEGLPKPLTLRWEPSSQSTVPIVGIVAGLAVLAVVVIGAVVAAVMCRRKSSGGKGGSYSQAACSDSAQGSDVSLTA
Text: AAV-p74 peptide loaded HLA-B7-positive human lymphoblastoid cell line (JyA2B7) was used to determine whether AAV-a-scTCR can bind to AAV-p74 peptide/HLA-B7 complexes on cell surface.

MHC molecules displaying the AAV peptide epitopes on Malme-3 fibroblasts, sequence (P61769 21-119): as the sequence (P61769 21-119) above
MHC molecules displaying the AAV peptide epitopes on Malme-3 fibroblasts, sequence (P01889 25-362): as the sequence (P01889 25-362) above

Molecule | binding result [1] | staining of lymph node cells and splenocytes [2] | staining of peptide-loaded fibroblasts ([3]; AAV capsid epitopes 10 ug/ml, 2 hrs, 37° C.) | staining of AAV-transduced fibroblasts ([3]; AAV vector MOI 5×10^5 or 1×10^6, stained 24 or 48 hours later) | minimum AAV-p74 peptide loading concentration stained ([4]; PLE added during loading) [µg/mL] | minimum AAV-p74 peptide loading concentration stained ([4]; typical conditions) [µg/mL] | staining of JyA2B7 cells ([4]; cells loaded with 50 μg/ml AAV-p74 peptide, 0.025 μg/test multimer)
AAV-a-AJ31 (TCR, V domains shown) Valpha: SQQGEEDPQALSIQEGENATMNCSYKTSINNLQWYRQNSGRGLVHLILIRSNEREKHSGRLRVTLDTSKKSSSLLITASRAADTASYFCATLYNARLMFGDGTQLVVKP Vbeta: NAGVTQTPKFRVLKTGQSMTLLCAQDMNHEYMYWYRQDPGMGLRLIHYSVGEGTTAKGEVPDGYNVSRLKKQNFLLGLESAAPSQTSVYFCASRSGSAGAFFGQGTRLTVV | recognises |  |  |  |  |  | 
AAV-b-scTCR-BirA (TCR, V domains shown) Valpha: TQLLEQSPQFLSIQEGENLTVYCNSSSVFSSLQWYRQEPGEGPVLLVTVVTGGEVKKLKRLTFQFGDARKDSSLHITAAQPGDTGLYLCAGKKTNDYKLSFGAGTTVTVRA Vbeta: ETGVTQTPRHLVMGMTNKESLKCEQHLGHNAMYWYKQSAKKPLELMFVYSLEERVENNSVPSRFSPECPNSSHLFLHLHTLQPEDSALYLCASSQDRVNLAGEQYFGPGTRLTVT | recognises |  |  |  |  |  | 
p74-scTCR multimer: PE-conjugated multimer generated from biotinylated AAV-a-AJ31 scTCR-BirA fusion protein (protein, left off: things letters cannot carry; a dimerising Fc or GST; small tags and cut ends, PE-conjugated multimer generated from biotinylated AAV-a-AJ31 scTCR-BirA fusion protein) alpha: SQQGEEDPQALSIQEGENATMNCSYKTSINNLQWYRQNSGRGLVHLILIRSNEREKHSGRLRVTLDTSKKSSSLLITASRAADTASYFCATLYNARLMFGDGTQLVVKP beta: NAGVTQTPKFRVLKTGQSMTLLCAQDMNHEYMYWYRQDPGMGLRLIHYSVGEGTTAKGEVPDGYNVSRLKKQNFLLGLESAAPSQTSVYFCASRSGSAGAFFGQGTRLTVV |  | positive staining | positive staining | positive staining | 1 | 5 | Specific staining
